In experiment [1] the target is T1, tyrosine kinase receptor MET on HeLa cells (UniProt P08581 25-1390, limits assumed). Briefly: cell-based or functional assay.
In experiment [2] the target is T1, tyrosine kinase receptor MET on HeLa …. As to the kind of experiment: cell-based or functional assay. This is another data set of the same source.

T1 sequence (P08581 25-1390 limits assumed): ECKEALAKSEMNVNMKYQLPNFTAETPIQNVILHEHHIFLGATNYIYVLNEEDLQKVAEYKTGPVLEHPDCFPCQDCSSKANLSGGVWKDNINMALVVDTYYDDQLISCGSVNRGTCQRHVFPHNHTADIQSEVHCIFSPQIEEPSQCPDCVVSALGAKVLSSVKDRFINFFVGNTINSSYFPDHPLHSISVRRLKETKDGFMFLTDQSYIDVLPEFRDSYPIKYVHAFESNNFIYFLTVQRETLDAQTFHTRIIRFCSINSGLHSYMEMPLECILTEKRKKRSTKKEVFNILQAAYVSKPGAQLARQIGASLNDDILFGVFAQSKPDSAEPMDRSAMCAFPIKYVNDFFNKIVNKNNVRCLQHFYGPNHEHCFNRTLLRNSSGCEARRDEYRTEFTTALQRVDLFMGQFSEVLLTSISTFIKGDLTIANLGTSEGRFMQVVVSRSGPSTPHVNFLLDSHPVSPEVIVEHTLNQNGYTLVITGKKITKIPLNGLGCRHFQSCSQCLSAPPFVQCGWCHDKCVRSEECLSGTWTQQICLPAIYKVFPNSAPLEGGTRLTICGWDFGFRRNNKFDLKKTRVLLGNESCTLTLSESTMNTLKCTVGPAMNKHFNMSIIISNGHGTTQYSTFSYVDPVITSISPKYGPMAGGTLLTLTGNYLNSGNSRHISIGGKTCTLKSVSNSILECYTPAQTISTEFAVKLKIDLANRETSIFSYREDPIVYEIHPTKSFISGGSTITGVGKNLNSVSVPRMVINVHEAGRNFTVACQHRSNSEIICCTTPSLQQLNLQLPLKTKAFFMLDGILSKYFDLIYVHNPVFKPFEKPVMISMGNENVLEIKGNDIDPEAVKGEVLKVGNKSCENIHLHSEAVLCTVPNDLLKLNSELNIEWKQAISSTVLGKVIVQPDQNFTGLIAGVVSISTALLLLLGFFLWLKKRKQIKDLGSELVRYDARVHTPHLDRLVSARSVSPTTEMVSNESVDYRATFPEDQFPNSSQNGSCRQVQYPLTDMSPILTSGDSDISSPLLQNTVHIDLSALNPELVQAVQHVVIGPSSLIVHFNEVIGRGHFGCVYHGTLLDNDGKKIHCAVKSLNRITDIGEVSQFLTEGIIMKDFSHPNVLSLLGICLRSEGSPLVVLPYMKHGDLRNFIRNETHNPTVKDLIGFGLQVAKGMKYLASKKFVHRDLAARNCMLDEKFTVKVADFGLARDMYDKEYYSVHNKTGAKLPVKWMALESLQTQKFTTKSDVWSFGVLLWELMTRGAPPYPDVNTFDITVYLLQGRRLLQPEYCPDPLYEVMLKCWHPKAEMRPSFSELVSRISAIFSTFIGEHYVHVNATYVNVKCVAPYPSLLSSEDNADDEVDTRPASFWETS

B1: K1K1 variant 2 (long linker variant) (designed binder)
chain: MAIRNCIIGKGRSYKGTVSITKSGIKCQPWSSMIPHEHSFLPSSYRGKDLQENYCRNPRGEEGGPWCFTSNPEVRYEVCDIPQCGGGGSLVPRGSGGGGSCIIGKGRSYKGTVSITKSGIKCQPWSSMIPHEHSFLPSSYRGKDLQENYCRNPRGEEGGPWCFTSNPEVRYEVCDIPQCSEVE
Consider B1, for which, in experiment [1], the “ERK and Akt phosphorylation in HeLa cells (western blot, ALPHAScreen)” value is roughly 100 pM; the “MET phosphorylation in HeLa cells (western blot)” value (“MET phosphorylation in HeLa cells” for short) is 100 pM; the “agonist activity against NK1 (ERK and Akt phosphorylation in HeLa cells)” value (“agonist activity against NK1” below) is ≥ 10 times (against NK1).

B2: HGF/SF-K1K1 (C-terminally tagged K1K1 protein, 6xHis tag) (designed binder)
chain: MAIRNCIIGKGRSYKGTVSITKSGIKCQPWSSMIPHEHSFLPSSYRGKDLQENYCRNPRGEEGGPWCFTSNPEVRYEVCDIPQCSEVECIIGKGRSYKGTVSITKSGIKCQPWSSMIPHEHSFLPSSYRGKDLQENYCRNPRGEEGGPWCFTSNPEVRYEVCDIPQCSEVEHHHHHH
Consider B2, for which, in experiment [1], the “ERK and Akt phosphorylation in HeLa cells (western blot, ALPHAScreen)” value is roughly 100 pM; the “MET phosphorylation in HeLa cells” value came to 100 pM; the “agonist activity against NK1” value is ≥ 10 times (against NK1). Moreover, in experiment [2], the “EC50 (read off the curve), Akt phosphorylation (P-AKT) [P-AKT]” value is roughly 0.03 nM and the “EC50 (read off the curve), ERK phosphorylation (P-ERK) [P-ERK]” value was roughly 0.03 nM.

B3: K1K1 variant 3 (GS-linker variant) (designed binder)
chain: MAIRNCIIGKGRSYKGTVSITKSGIKCQPWSSMIPHEHSFLPSSYRGKDLQENYCRNPRGEEGGPWCFTSNPEVRYEVCDIPQCGSGGCIIGKGRSYKGTVSITKSGIKCQPWSSMIPHEHSFLPSSYRGKDLQENYCRNPRGEEGGPWCFTSNPEVRYEVCDIPQCSEVE
Turning to B3, in experiment [1], the “ERK and Akt phosphorylation in HeLa cells (western blot, ALPHAScreen)” value was roughly 100 pM; the “MET phosphorylation in HeLa cells” value worked out at 100 pM; the “agonist activity against NK1” value was ≥ 10 times (against NK1).

B4: K1K1 variant 1 (tagless variant) (designed binder)
chain: MAIRNCIIGKGRSYKGTVSITKSGIKCQPWSSMIPHEHSFLPSSYRGKDLQENYCRNPRGEEGGPWCFTSNPEVRYEVCDIPQCSEVECIIGKGRSYKGTVSITKSGIKCQPWSSMIPHEHSFLPSSYRGKDLQENYCRNPRGEEGGPWCFTSNPEVRYEVCDIPQCSEVE
For B4, in experiment [1], the “ERK and Akt phosphorylation in HeLa cells (western blot, ALPHAScreen)” value is roughly 100 pM; the “MET phosphorylation in HeLa cells” value stood at 100 pM; the “agonist activity against NK1” value was ≥ 10 times (against NK1).

Source of the values: patent publication US20170369545A1 (CENTRE NATIONAL DE LA RECHERCHE SCIENTIFIQUE, published 2017).
